The results in this text go back to patent publication US6759384.

No end group written: not given here.

The experiment addresses T1, human factor Xa (Enzyme Research Laboratories, Inc.) (human), P00742.
T1 chain 1: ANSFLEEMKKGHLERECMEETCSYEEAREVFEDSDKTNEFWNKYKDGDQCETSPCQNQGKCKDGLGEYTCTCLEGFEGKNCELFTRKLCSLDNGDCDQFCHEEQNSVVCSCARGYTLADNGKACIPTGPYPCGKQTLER
T1 chain 2: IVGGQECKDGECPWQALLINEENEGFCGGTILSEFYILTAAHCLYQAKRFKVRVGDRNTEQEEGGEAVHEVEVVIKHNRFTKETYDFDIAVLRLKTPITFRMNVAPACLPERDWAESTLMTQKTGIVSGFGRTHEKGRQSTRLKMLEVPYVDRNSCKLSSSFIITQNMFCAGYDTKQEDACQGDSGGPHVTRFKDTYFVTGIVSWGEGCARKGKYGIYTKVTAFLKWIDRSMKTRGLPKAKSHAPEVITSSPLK
As to the kind of experiment: chromogenic FXa inhibition.

One may read the Ki as the equilibrium dissociation constant of an inhibitor or competing ligand from its target. A higher Ki goes with a looser hold on the target. GYIRI-NH2 [G-Y-I-R-I-NH2] had an inhibition constant Ki below 100 µM. Regarding GYIRK-NH2 [G-Y-I-R-K-NH2], the Ki was below 100 µM. For GYIRG-NH2 [G-Y-I-R-G-NH2] the value was below 100 µM; for Ac-GYIRL-NH2 [Ac-G-Y-I-R-L-NH2], below 100 µM.

In turn, GYIRG (modifications not checked) [G-Y-I-R-G] yielded a Ki below 100 µM. In the case of GYIRH-NH2 [G-Y-I-R-H-NH2], the inhibition constant (Ki) was below 100 µM. The same measure for GYIRT-NH2 [G-Y-I-R-T-NH2]: below 100 µM; for WIREK-NH2 [W-I-R-E-K-NH2]: below 100 µM.

GYIRL-NH2 [G-Y-I-R-L-NH2]: the Ki was below 100 µM.

EYIRK-NH2 [E-Y-I-R-K-NH2] registered a Ki below 100 µM. The molecule Ac-GYIRG-NH2 [Ac-G-Y-I-R-G-NH2] had a Ki below 100 µM.
